Reference: patent publication US20100136573

System: Recombinant human GST-TDP-43 (N-terminal GST tag, full length), non-phosphorylated
Sequence (chain, as listed by the source): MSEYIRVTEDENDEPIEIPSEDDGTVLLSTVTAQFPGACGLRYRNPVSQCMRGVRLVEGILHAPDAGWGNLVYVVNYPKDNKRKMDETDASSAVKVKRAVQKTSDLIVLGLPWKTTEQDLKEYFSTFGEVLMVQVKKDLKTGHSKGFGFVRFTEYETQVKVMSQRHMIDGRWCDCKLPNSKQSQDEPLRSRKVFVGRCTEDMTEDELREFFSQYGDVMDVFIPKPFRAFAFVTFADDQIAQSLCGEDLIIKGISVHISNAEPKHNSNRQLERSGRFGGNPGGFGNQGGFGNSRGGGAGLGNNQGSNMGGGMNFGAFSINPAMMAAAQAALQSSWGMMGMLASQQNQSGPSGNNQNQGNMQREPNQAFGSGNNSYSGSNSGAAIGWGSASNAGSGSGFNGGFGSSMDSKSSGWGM

recombinant casein kinase 1 (CK1; New England BioLabs, Inc)
in vitro phosphorylation, read by anti-pTDP-43 Western blot: CK1 effectively phosphorylated GST-TDP-43 at S409/S410 in vitro
